Test results published in the nanobody polyreactivity screen of Harvey et al. (2022).

assay: yeast display, Sf9 membrane polyspecificity reagent, FACS + sequencing; frameworks hold sequencing errors
In short: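 Polyreactivity labels are assigned by the sorting gate from which each nanobody was recovered. The gates were low and high (top ~1%), set on anti-HA fluorescence for expression and streptavidin fluorescence for reagent binding. Before sorting, galactose-induced (36–48 hours) yeast display cells were stained for 1 hour at 4 °C with 10% biotinylated, detergent-solubilized Sf9 membrane reagent.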

Sequence	polyreactivity (PSR sort gate)
QVQLVESGGGLVQAGGSLRLSCAASGRIFGTNTMGWYRQAPGKERELVAGISSSGDSTYYADSVKGRFTISRDNAKNTVYLQMNSLKPEDTAVYYCAARKGEFWFPQGGYNYWGQGTQVTVSS	low polyreactivity
QVQLVESGGGLVQAGGSLRLSCAASGRIFGTYAMGWYRQAPGKERELVAAITQSGGRTYYADSVKGRFTISRDNAKNTVYLQMNSLKPEDTAVYYCAADSGKRRYGYYYWGQGTQVTVSS	high polyreactivity
QVQLVESGGGLVQAGGSLRLSCAASGRIFGTYAMGWYRQAPGKERELVARITRIGTRTYYADSVKGRFTISRDNAKNTVYLQMNSLKPEDTAVDYCAAGHYSYWVNTVKRYNTGYDYWGQGTQVTVSS	high polyreactivity
QVQLVESGGGLVQAGGSLRLSCAASGRIFGTYAMGWYRQAPGKERELVATISYSSGRTYYADSVKGRFTISRDNAKNTVYFQMNSLKPEDTAVYYCARRRRSGSRQYYYWGQGTQVTVSS	high polyreactivity
QVQLVESGGGLVQAGGSLRLSCAASGRIFGTYGMGWYRQAPGKERELVAAINWRGGSTYYADSVKGRFTISRDNAKNTVYLQMNSLKPEDTAVYYCNARLYRNRLGYWGQGTQVTVSS	high polyreactivity
QVQLVESGGGLVQAGGSLRLSCAASGRIFGTYVMGWYRPAPGKERELVARITGGGSTNYADSVKGRFTISRDNAKNTVYLEMNSLKPEDTAVYYCARDYGPYLSPEKPAPMDYWGQGTQVTVSS	low polyreactivity
QVQLVESGGGLVQAGGSLRLSCAASGRIFGVNAMGWYRQAPGKERELVAAIRYRDGSTYYADSVKGRFIISRDNAKNTVYLQMNSLKPEDTAVYYCNALHQRFYAQPGDYWGQGTQVTVSS	high polyreactivity
QVQLVESGGGLVQAGGSLRLSCAASGRIFGVNAMGWYRQAPGKERELVAAISVSGDSTYYADSVKGRFTISRDNAKNTVYLQMNSLKPEDTAVYYCNAGYTFVPADLTDEYYWGQGTQVTVSS	low polyreactivity
QVQLVESGGGLVQAGGSLRLSCAASGRIFGVNAMGWYRQAPGKERELVAVISSGGSTYYADSVKGRFTISRDNAKNTVYLQMNSLKPEDTAVYYCNAVVGRWFPYNLSDYWGQGTQVTVSS	low polyreactivity
QVQLVESGGGLVQAGGSLRLSCAASGRIFGVNAMGWYRQEPGKERELVAAISAGGGNTYYADSVKGRFTISRDNAKNTVYLQMNSLKPEDTAVYYCNVHRSLRMDYWGQGTQVTVSS	high polyreactivity
QVQLVESGGGLVQAGGSLRLSCAASGRIFGVYAMGCYRQATGKERELVATNTSGGSTSYADSVKGRFTISRDNAKNPVYLQMNSLKPEDTAVYYCNAPYSFFWQQMNYWGQGTQETVSS	low polyreactivity
QVQLVESGGGLVQAGGSLRLSCAASGRIFGVYAMGWSRQAPGKERELGAGITDRGGRTYYADSVKGRFTISRDNAKNTVYLQMNSLKPEDTAVYYCNAGSLHRRYYYEGDYWGQGTQVTVSS	high polyreactivity
QVQLVESGGGLVQAGGSLRLSCAASGRIFGVYAMGWYRQAPGKERELVAAISEGGGSTNYADSVKGRFTISRDNAKNTVYLQMNSLKPEDTAGYYCAATYRTGVRRYYSWGQGTQVTVSS	low polyreactivity
QVQLVESGGGLVQAGGSLRLSCAASGRIFGVYAMGWYRQAPGKERELVAAISSTGGSTYYADSVKGRFTISRDNAKNTVYLQMNSLKPEDTAVYYCEYDYWGQGTQVTVSS	low polyreactivity
QVQLVESGGGLVQAGGSLRLSCAASGRIFGVYAMGWYRQAPGKERELVAAIYSGSSTYYADSVKGRFTISRDNAKNTVYLHMNSLKPEDTAVYYCAAVSRDDNYQDYYYWGQGTQVTVSS	low polyreactivity
QVQLVESGGGLVQAGGSLRLSCAASGRIFGVYTMGWYRQAPGKERELVAVISRRGGRTYYADSVKGRFTISRDNAKNTVYLQMNSLKPEDTAVYYCARDSTYSSYTSNDYWGQGTQVTVSS	high polyreactivity
QVQLVESGGGLVQAGGSLRLSCAASGRIFGVYVMGWYRQAPGKEREFVAAITWSGGRTYYADSVKGRFTISRDNAKNTVYLQMNSLKPEDTAVYYCAARRRYEYDYWGQGTQVTVSS	high polyreactivity
QVQLVESGGGLVQAGGSLRLSCAASGRIFGWYAMGWYRQAPGKERELVAAIRWSGGSTYADSVKGRFTISRDNAKNTVYLQMNSLKPEDTAVYYCAATYGSYRGVRYYWGQGTQVTVSS	high polyreactivity
QVQLVESGGGLVQAGGSLRLSCAASGRIFGWYAMGWYRQAPGKERELVAAISRSGGSTYYADSVKGRFTISRDNAKNTVYLQMNSLKPEDTAVCYCAAAFSLGMYWGQGTQVTVSS	high polyreactivity
QVQLVESGGGLVQAGGSLRLSCAASGRIFGWYAMGWYRQAPGKERELVAAISYSGGSTYADSVKGRFTISRDNAKYTVYLQMNSLKPEDTAVYYCAAYSSYYVHRFQHYDYWGQGTQVTVSS	high polyreactivity
QVQLVESGGGLVQAGGSLRLSCAASGRIFGWYAMGWYRQAPGKERELVAAITSSVGRTYYADSVKGRFTISRDNAKNTVYLQMNSLKPEDTAVYYCAKDLYTYYYFEYDYWGQGTQVTVSS	low polyreactivity

Sequence	polyreactivity (PSR sort gate)
QVQLVESGGGLVQAGGSLRLSCAASGRIFGWYAMGWYRQAPGKERELVAGISSSSGSTNYADSVKGRFSISRDNAKNTVYLQMNSLKPEDTAVYYCAADGGGTYYSFYYWGQGTQVTVSS	low polyreactivity
QVQLVESGGGLVQAGGSLRLSCAASGRIFGWYDMGWYRQAPGKERELVAAISYNGARTYYADSVKGRFTISRDNAKNTVYLQMNSLKPEDTAVYYCARRYYSQYDYWGQGTQVTVSS	high polyreactivity
QVQLVESGGGLVQAGGSLRLSCAASGRIFGYAMGWYRQAPGKERELVAAITSSGGRTYYADSVKGRFTISRDNAKNTVYLQMNSLKPEDTAVYYCAAEYLAVSGYWYDYWGQGTQVTVSS	high polyreactivity
QVQLVESGGGLVQAGGSLRLSCAASGRIFGYNAMGRYRQAPGKERELVAAISSGASTIYADSVKGRFTISRDNAKNTVYLQMNSLKPEDTAVYYCAKEKVISPYPYSYYKSDYWGQGTQVTVSS	high polyreactivity
QVQLVESGGGLVQAGGSLRLSCAASGRIFGYNAMGWSRQAPGKERELVAAISYSGGSTYYADSVKGRFTISRDNAKNTVYLQMNSLKPEDTAVYYCAARHPYYYHYDYWGQGTQVTVSS	high polyreactivity
QVQLVESGGGLVQAGGSLRLSCAASGRIFGYYAMGSYRQAPGKERELVAAITRGGSTNYADSVKGRFTISRDNAKNTVYLQMNSLKPEDTAVYYCNARRYRPRSASYDYWGQGTQVTVSS	high polyreactivity
QVQLVESGGGLVQAGGSLRLSCAASGRIFGYYAMGWSRQAPGKEWELVAAISSGGRTYYADSVKGRFTISRDNAKNTVYLQMNSLKPEDTAVYYCAARSRVPPAGPRYDYWGLGTQVTVSS	high polyreactivity
QVQLVESGGGLVQAGGSLRLSCAASGRIFGYYAMGWYRQAPGKERELVAAISDGGSTDYADSVKGRFTISRDNAKNTVYLQMNSLKPEDTAVYYCNADRLYLYNVEYDYWGQGTQVTVSS	low polyreactivity
QVQLVESGGGLVQAGGSLRLSCAASGRIFGYYAMGWYRQAPGKERELVAAISSNGGSTYYADSVKGRFTISRDNAKNTVYLQMNSLKPEDTAVYYCKVYFYSRHYFYRGDYWGQGTQVTVSS	high polyreactivity
QVQLVESGGGLVQAGGSLRLSCAASGRIFGYYAMGWYRQAPGKERELVAAISYTGGSTYYADSVKGRFTISRDNAKNTVYLQMNSLKPEDTAVYYCAAKHYKRLDYWGQGTQVTVSS	high polyreactivity
QVQLVESGGGLVQAGGSLRLSCAASGRIFGYYAMGWYRQAPGKERELVAAITGSGGRTYYADSVKGRFTISRDNAKNTVYLQMNSLKPEDTAVYYCARQQYRWERVYGYGYCGQGTQVTVSS	high polyreactivity
QVQLVESGGGLVQAGGSLRLSCAASGRIFGYYAMGWYRQAPGKERELVAAITRNGGSTYYADSVKGRFTISRDNAKNTVYLQMNSLKPEDTAVYYCAATKGGGRGYWGQGTQLTVSS	high polyreactivity
QVQLVESGGGLVQAGGSLRLSCAASGRIFGYYAMGWYRQAPGKERELVAAITWSGGTYYADSVKGRFTISRDNAKNTVYLQMNSLKPEDTAVYYCAKSVRNGWQSRFGYWGQGTQVTVSS	high polyreactivity
QVQLVESGGGLVQAGGSLRLSCAASGRIFGYYAMGWYRQAPGKERELVADITESGTSTYYADSVKGRFTISRDNAKNTVYLHMNILKPEDTAVYYCAAGYWWRYALYGYWGQGTQVTVSS	low polyreactivity
QVQLVESGGGLVQAGGSLRLSCAASGRIFGYYAMGWYRQAPGKERELVAGINSAGSTNYADSVKGRFTISRDNAKNTVYLQMNSLKPEDTAVYYCAARIRLSLRTGYDYWGQGTQVTVSS	high polyreactivity
QVQLVESGGGLVQAGGSLRLSCAASGRIFGYYAMGWYRQAPGKERELVARISSSGGSTYYADSVKGRFTISRDNAKNTVYLQMNSLKPEDTAVYYCNTASNRYPGWRAEFDYWGQGTQVTVSS	low polyreactivity
QVQLVESGGGLVQAGGSLRLSCAASGRIFGYYAMGWYRQAPGKERELVATITFGGGSTYYADSVKGRFTISRDNAKNTVYLQMNSLKPEDTAVYFCAADSGYLGIYGDEYSWGQGTQVTVSS	low polyreactivity
QVQLVESGGGLVQAGGSLRLSCAASGRIFGYYGMGWYRQAPGKERELVAAITDDGDSTYYADSVKGRFTISRDNAKNTVYLQMNSLKPEDTAVYYCNALGYYVNKMDYWGQGTQVTVSS	low polyreactivity
QVQLVESGGGLVQAGGSLRLSCAASGRIFGYYTMGWYRQAPGKERELVAGITRRGGRTYYADSVKGRFTISRDNAKNTVYLQMNSLKPEDTAVYYCDVRSGVNFYYWGQGTQVTVSS	high polyreactivity
QVQLVESGGGLVQAGGSLRLSCAASGRIFGYYVMGWYRPAPGKERELVAAIRSSADSTYYADSVKGRFTISRDNAKNTVYLQMNSLKPEDTAVYDCAAQSPAYYTKSYWGQGTQVTVSS	low polyreactivity
